The results in this text go back to patent US20180244785A1 (MERRIMACK PHARMACEUTICALS, published 2018).

The target in one assay is FGFR1 on tumour cells (UniProt P11362 22-822). Nature of the assay: cell-based or functional assay.
The next assay addresses T1, 6His-Fc-FGFR4 (human, UniProt P22455 144-369).
T1 construct: not shown: 6His tag and Fc as named in '6His-Fc-FGFR'
T1 sequence: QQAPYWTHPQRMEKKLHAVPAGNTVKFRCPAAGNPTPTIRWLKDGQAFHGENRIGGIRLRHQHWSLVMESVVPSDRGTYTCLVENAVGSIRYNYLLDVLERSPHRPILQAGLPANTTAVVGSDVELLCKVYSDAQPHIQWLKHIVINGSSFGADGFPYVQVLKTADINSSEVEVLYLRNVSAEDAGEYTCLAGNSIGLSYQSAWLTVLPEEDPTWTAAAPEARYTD
Put plainly: competition ELISA, blocks 6His-Fc-FGFR4 binding to coated FGF2. On the procedure:
(§1) ELISA plates were coated with 50 ug/ml Heparin Sulfate (HSPG) (Sigma Aldrich) and incubated overnight at room temperature. Plates were then washed extensively with PBS containing 0.05% v/v Tween20 (PBST). Plates were then blocked with 2.5% BSA in PBST for one hour and washed extensively as before. 40-60 μL of FGF1 or FGF2 was then added to each well at 40 μg/ml and allowed to bind at room temperature for 2 hours. Plates were then washed extensively with PBST as before. Stock solutions of each 6His-Fc-FGFR (FGFR1-4) were prepared at 500 ng/ml in 2% v/v BSA-PBST and each antibody was prepared as a 2×-dilution series in 2% v/v BSA-PBST. Antibodies dilution series and 6His-Fc-FGFR1-4 were diluted in a 1:1 fashion and immediately added to the relative wells of the plate and allowed to bind for 2 hours at room temperature. Plates were washed extensively as before with PBST and the remaining fraction of bound 6His-Fc-FGFR was detected using a polyclonal-anti-His-6-HRP conjugated antibody (Abcam) for one hour at room temperature. After extensive washing with PBST, 50 μl of Pierce Chemiluminescent substrate (Thermo Fisher Scientific, Rockford, USA) was added and plates were measured on an Envision plate reader (Perkin Elmer). Raw data was background corrected and plotted using Prism software. […]
Background: ELISA stands for enzyme-linked immunosorbent assay.

The next assay deals with T2, 6His-Fc-FGFR1c (human, UniProt P11362 141-376).
T2 construct: not shown: 6His tag and Fc as named in '6His-Fc-FGFR'
T2 sequence: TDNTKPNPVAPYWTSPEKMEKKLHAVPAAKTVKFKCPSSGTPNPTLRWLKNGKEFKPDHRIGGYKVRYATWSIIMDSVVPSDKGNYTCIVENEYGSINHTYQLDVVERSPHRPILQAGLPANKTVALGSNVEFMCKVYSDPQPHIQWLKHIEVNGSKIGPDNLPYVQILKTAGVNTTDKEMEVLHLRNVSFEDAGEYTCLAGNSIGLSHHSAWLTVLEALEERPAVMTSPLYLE
Put plainly: competition ELISA, blocks 6His-Fc-FGFR1c binding to coated FGF2. Here is the method: as §1

Sequence of FGFR1 on tumour cells (P11362 22-822): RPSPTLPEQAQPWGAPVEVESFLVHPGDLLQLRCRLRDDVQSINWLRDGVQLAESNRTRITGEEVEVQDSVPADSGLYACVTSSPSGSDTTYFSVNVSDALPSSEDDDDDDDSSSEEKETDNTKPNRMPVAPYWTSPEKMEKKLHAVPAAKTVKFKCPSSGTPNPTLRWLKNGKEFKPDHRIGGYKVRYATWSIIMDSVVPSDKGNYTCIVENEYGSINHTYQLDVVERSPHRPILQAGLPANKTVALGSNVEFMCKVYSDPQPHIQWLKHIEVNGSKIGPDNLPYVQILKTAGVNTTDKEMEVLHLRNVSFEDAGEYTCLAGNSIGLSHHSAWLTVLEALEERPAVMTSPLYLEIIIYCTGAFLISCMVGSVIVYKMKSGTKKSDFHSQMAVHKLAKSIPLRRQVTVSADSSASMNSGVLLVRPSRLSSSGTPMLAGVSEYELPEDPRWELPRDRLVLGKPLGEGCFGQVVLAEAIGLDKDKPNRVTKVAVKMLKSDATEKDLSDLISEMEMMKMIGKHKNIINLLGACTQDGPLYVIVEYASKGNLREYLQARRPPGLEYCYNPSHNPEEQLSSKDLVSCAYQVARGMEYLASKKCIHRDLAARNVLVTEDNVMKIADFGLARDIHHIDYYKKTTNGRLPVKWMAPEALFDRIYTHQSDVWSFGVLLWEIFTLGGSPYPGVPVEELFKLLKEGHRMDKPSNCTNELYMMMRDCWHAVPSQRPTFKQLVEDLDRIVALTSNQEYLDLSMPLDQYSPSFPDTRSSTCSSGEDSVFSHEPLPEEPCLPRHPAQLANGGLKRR

B1: Ab16 (antibody, human IgG2, kappa, V domains shown)
VH: EVQLLESGGGVVQPGRSLRLSCAASGFTFSSYAMHWVRQAPGKGLEWVAVISYDGSNKYYADSVKGRFTISRDNSKNTLSLQMNSLRVEDTAIYYCVRGAGRGYTRGPDGFDIWGQGTMVTVSS
VL: DIVMTQTPLSLSVTPGQPASISCKSSRSLLHSDGKTYVYWYVQKSGQPPQLLIYELSNRFSGVPDRFSGSGSRTDFTLKISRVEAEDVGVYYCMQYIEAPLTFGGGTKVEIKR
notes: format in the assays not spelled out
What is called IC50 is the concentration that gives 50% inhibition. A high value points to weaker potency in that assay. With B1, the “IC50 of pERK inhibition (AlphaScreen SureFire) in NCI-H1581 cells” value (from here on “IC50 of pERK inhibition”) in the assay with FGFR1 on tumour cells is 3.88 nM. Further, the IC50 was 40.1 nM with 6His-Fc-FGFR4 and 6.28 nM with 6His-Fc-FGFR1c.

B2: Ab65 (antibody, human IgG2, kappa, V domains shown)
VH: EVQLLESGGGVVQPGRSLRLSCAASGFTFSSYAMHWVRQAPGKGLEWVAVISYDGSNKYYADSVKGRFTISRDNSKNTLSLQMNSLRVEDTAIYYCVRGAGRGYPYGPDGFDIWGQGTMVTVSS
VL: DIVMTQTPLSLSVTPGQPASISCTSSRSLLHSDGKTYVYWYVQKSGQPPQLLIYELSNRFSGVPDRFSGSGSRTDFTLKISRVEAEDVGVYYCMQYIEAPLTFGGGTKVEIKR
notes: as for B1
As to B2, the results for the half-inhibitory concentration (IC50) with 6His-Fc-FGFR4 and with 6His-Fc-FGFR1c were 13.4 nM and 3.18 nM, respectively.

B3: Ab23 (antibody, human IgG2, V domains shown)
VH: EVQLLESGGGVVQPGRSLRLSCAASGFTFSSYAMHWVRQAPGKGLEWVAVISYDGSNKYYADSVKGRFTISRDNSKNTLSLQMNSLRVEDTAIYYCVRGAGRGLTYGPDGFDIWGQGTMVTVSS
VL: DIVMTQTPLSLSVTPGQPASISCKSSRSLLHSDGKTYVYWYVQKSGQPPQLLIYELSNRFSGVPDRFSGSGSRTDFTLKISRVEAEDVGVYYCMQYIEAPLTFGGGTKVEIK
notes: Format in the assays not spelled out
As for B3, in the assay with FGFR1 on tumour cells, the “IC50 of pERK inhibition” value came to 3.04 nM. Also, the results for the IC50 with 6His-Fc-FGFR4 and with 6His-Fc-FGFR1c were 23.8 nM and 4.52 nM, respectively.

B4: Ab88 (antibody, human IgG2, kappa, V domains shown)
VH: EVQLLESGGGVVQPGRSLRLSCAASGFTFSSYAMHWVRQAPGKGLEWVAVISYDGSNKYYADSVKGRFTISRDNSKNTLSLQMNSLRVEDTAIYYCVRGAGRGLTYGPDGFDIWGQGTMVTVSS
VL: DIVMTQTPLSLSVTPGQPASISCKSSRSLLHSDGKTYLYWYVQKSGQPPQLLIYELSNRFSGVPDRFSGSGSRTDFTLKISRVEAEDVGVYYCMQYIEAPLTFGGGTKVEIKR
notes: as for B1
Regarding B4, the IC50 in the assay with 6His-Fc-FGFR4 was 19 nM; in the assay with 6His-Fc-FGFR1c, 8.02 nM.

B5: Ab29 (antibody, human IgG2, kappa, V domains shown)
VH: EVQLLESGGGVVQPGRSLRLSCAASGFTFSSYAMHWVRQAPGKGLEWVAVISYDGSNKYYADSVKGRFTISRDNSKNTLSLQMNSLRVEDTAIYYCVRGAGLGWPYGPDGFDIWGQGTMVTVSS
VL: DIVMTQTPLSLSVTPGQPASISCTSSRSLLHSDGKTYVYWYVQKSGQPPQLLIYELSNRFSGVPDRFSGSGSRTDFTLKISRVEAEDVGVYYCMQYVEAPLTFGGGTKVEIKR
notes: as for B1
Regarding B5, in the assay with FGFR1 on tumour cells, the “IC50 of pERK inhibition” value was determined as 0.54 nM. For the same molecule, the figures for the IC50 in the assay with 6His-Fc-FGFR4 and in the assay with 6His-Fc-FGFR1c were 5.41 nM and 4.19 nM, respectively.

B6: Ab31 (antibody, human IgG2, kappa, V domains shown)
VH: EVQLLESGGGVVQPGRSLRLSCAASGFTFSSYAMHWVRQAPGKGLEWVAVISYDGSNKYYADSVKGRFTISRDNSKNTLSLQMNSLRVEDTAIYYCVRGAGRGLTYGPDGFDIWGQGTMVTVSS
VL: DIVMTQTPLSLSVTPGQPASISCTSSRSLLHSDGKTYVYWYVQKSGQPPQLLIYELSNRFSGVPDRFSGSGSRTDFTLKISRVEAEDVGVYYCMQYVEAPLTFGGGTKVEIKR
notes: as for B1
For the molecule B6, the “IC50 of pERK inhibition” value with FGFR1 on tumour cells was found to be 2.72 nM. For the same molecule, the 50% inhibitory concentration (IC50) with 6His-Fc-FGFR4 worked out at 22.2 nM; with 6His-Fc-FGFR1c, 5.21 nM.

B7: Ab89 (antibody, human IgG2, kappa, V domains shown)
VH: EVQLLESGGGVVQPGRSLRLSCAASGFTFSSYAMHWVRQAPGKGLEWVAVISYDGSNKYYADSVKGRFTISRDNSKNTLSLQMNSLRVEDTAIYYCVRGAGRGFPYGPDGFDIWGQGTMVTVSS
VL: DIVMTQTPLSLSVTPGQPASISCRSSRSLLHSDGKTYVYWYVQKSGQPPQLLIYELSNRFSGVPDRFSGSGSRTDFTLKISRVEAEDVGVYYCMQYIEVPLTFGGGTKVEIKR
notes: as for B1
With B7, the half-inhibitory concentration (IC50) with 6His-Fc-FGFR4 worked out at 27.4 nM; with 6His-Fc-FGFR1c it was 11.1 nM.

B8: Ab34 (antibody, human IgG2, kappa, V domains shown)
VH: EVQLLESGGGVVQPGRSLRLSCAASGFTFSSYAMHWVRQAPGKGLEWVAVISYDGSNKYYADSVKGRFTISRDNSKNTLSLQMNSLRVEDTAIYYCVRGAGRGYTRGPDGFDIWGQGTMVTVSS
VL: DIVMTQTPLSLSVTPGQPASISCTSSRSLLHSDGKTYVYWYVQKSGQPPQLLIYELSNRFSGVPDRFSGSGSRTDFTLKISRVEAEDVGVYYCMQYVEAPLTFGGGTKVEIKR
notes: as for B1
Take B8: in the assay with FGFR1 on tumour cells, the “IC50 of pERK inhibition” value worked out at 4.83 nM. Moreover, the values for the IC50 with 6His-Fc-FGFR4 and in the assay with 6His-Fc-FGFR1c were 14.3 nM and 5.23 nM, respectively.

B9: Ab32 (antibody, human IgG2, kappa, V domains shown)
VH: EVQLLESGGGVVQPGRSLRLSCAASGFTFSSYAMHWVRQAPGKGLEWVAVISYDGSNKYYADSVKGRFTISRDNSKNTLSLQMNSLRVEDTAIYYCVRGAGLGFTYGPDGFDIWGQGTMVTVSS
VL: DIVMTQTPLSLSVTPGQPASISCTSSRSLLHSDGKTYVYWYVQKSGQPPQLLIYELSNRFSGVPDRFSGSGSRTDFTLKISRVEAEDVGVYYCMQYVEAPLTFGGGTKVEIKR
notes: as for B1
As to B9, in the assay with FGFR1 on tumour cells, the “IC50 of pERK inhibition” value was found to be 2.55 nM. For the same molecule, the IC50 in the assay with 6His-Fc-FGFR4 stood at 11.5 nM; with 6His-Fc-FGFR1c, 4.29 nM.

B10: Ab25 (antibody, human IgG2, kappa, V domains shown)
VH: EVQLLESGGGVVQPGRSLRLSCAASGFTFSSYAMHWVRQAPGKGLEWVAVISYDGSNKYYADSVKGRFTISRDNSKNTLSLQMNSLRVEDTAIYYCVRGAGLGFTYGPDGFDIWGQGTMVTVSS
VL: DIVMTQTPLSLSVTPGQPASISCKSSRSLLHSDGKTYVYWYVQKSGQPPQLLIYELSNRFSGVPDRFSGSGSRTDFTLKISRVEAEDVGVYYCMQYIEAPLTFGGGTKVEIKR
notes: as for B1
With B10, the “IC50 of pERK inhibition” value in the assay with FGFR1 on tumour cells was determined as 1.64 nM. The IC50 with 6His-Fc-FGFR4 amounted to 11.6 nM; with 6His-Fc-FGFR1c, 4.95 nM.

B11: Ab83 (antibody, human IgG2, kappa, V domains shown)
VH: EVQLLESGGGVVQPGRSLRLSCAASGFTFSSYAMHWVRQAPGKGLEWVAVISYDGSNKYYADSVKGRFTISRDNSKNTLSLQMNSLRVEDTAIYYCVRGAGRGFPYGPDGFDIWGQGTMVTVSS
VL: DIVMTQTPLSLSVTPGQPASISCKSSRSLLHSDGKTYVYWYVQKSGQPPQLLIYELSNRFSGVPDRFSGSGSRTDFTLKISRVEAEDVGVYYCMQYIEAPLTFGGGTKVEIKR
notes: as for B1
For B11, the results for the IC50 in the assay with 6His-Fc-FGFR4 and with 6His-Fc-FGFR1c were 154 nM and 9.23 nM, respectively.

B12: Ab27 (antibody, human IgG2, kappa, V domains shown)
VH: EVQLLESGGGVVQPGRSLRLSCAASGFTFSSYAMHWVRQAPGKGLEWVAVISYDGSNKYYADSVKGRFTISRDNSKNTLSLQMNSLRVEDTAIYYCVRGAGRGYTLGPDGFDIWGQGTMVTVSS
VL: DIVMTQTPLSLSVTPGQPASISCKSSRSLLHSDGKTYVYWYVQKSGQPPQLLIYELSNRFSGVPDRFSGSGSRTDFTLKISRVEAEDVGVYYCMQYIEAPLTFGGGTKVEIKR
notes: as for B1
For the molecule B12, the “IC50 of pERK inhibition” value in the assay with FGFR1 on tumour cells amounted to 1.77 nM. For the same molecule, the IC50 with 6His-Fc-FGFR4 is 30.1 nM; with 6His-Fc-FGFR1c, 5.45 nM.

B13: Ab21 (antibody, human IgG2, kappa, V domains shown)
VH: EVQLLESGGGVVQPGRSLRLSCAASGFTFSSYAMHWVRQAPGKGLEWVAVISYDGSNKYYADSVKGRFTISRDNSKNTLSLQMNSLRVEDTAIYYCVRGAGLGWPYGPDGFDIWGQGTMVTVSS
VL: DIVMTQTPLSLSVTPGQPASISCKSSRSLLHSDGKTYVYWYVQKSGQPPQLLIYELSNRFSGVPDRFSGSGSRTDFTLKISRVEAEDVGVYYCMQYIEAPLTFGGGTKVEIKR
notes: as for B1
On to B13, for which, in the assay with FGFR1 on tumour cells, the “IC50 of pERK inhibition” value was found to be 1.31 nM. The values for the IC50 in the assay with 6His-Fc-FGFR4 and with 6His-Fc-FGFR1c were 9.96 nM and 5.54 nM, respectively.
